Results as given in article PMC2821024.

Target: HuM7AIQ2 heavy chain, wild-type (human myosin VIIa Met1-Arg796, motor domain plus two IQ motifs) (human) (UniProt Q13402)
Test: co-purification on anti-FLAG resin, SDS-PAGE densitometry

Chain of UniProt Q13402 (Q13402 1-796): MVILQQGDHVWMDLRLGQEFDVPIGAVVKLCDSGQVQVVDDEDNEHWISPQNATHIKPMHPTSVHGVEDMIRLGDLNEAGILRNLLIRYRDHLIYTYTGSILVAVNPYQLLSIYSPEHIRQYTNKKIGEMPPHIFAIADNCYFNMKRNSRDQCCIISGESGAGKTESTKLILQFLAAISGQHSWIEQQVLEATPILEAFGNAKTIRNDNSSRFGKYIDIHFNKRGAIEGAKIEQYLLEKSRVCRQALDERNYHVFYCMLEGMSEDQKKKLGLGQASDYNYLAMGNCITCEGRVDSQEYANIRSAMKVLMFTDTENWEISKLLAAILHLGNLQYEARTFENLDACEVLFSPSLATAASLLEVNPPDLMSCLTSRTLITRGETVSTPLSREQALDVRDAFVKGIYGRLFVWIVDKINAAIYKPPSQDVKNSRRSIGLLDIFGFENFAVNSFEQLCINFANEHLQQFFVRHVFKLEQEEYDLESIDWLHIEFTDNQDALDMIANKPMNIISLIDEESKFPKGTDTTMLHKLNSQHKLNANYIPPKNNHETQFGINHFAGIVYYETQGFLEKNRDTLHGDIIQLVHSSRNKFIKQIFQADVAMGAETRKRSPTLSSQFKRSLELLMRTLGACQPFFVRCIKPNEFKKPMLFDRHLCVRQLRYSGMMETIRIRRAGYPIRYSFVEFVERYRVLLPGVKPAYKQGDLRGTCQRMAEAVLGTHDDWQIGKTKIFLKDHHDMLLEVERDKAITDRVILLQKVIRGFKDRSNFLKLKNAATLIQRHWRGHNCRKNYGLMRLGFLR

stoichiometry N (calmodulin per heavy chain): 1.53
Substance: calmodulin (from UniProt P0DP23 1-149) (natural protein)
